# Target: the molecule itself
# Assay: AUC; equilibrium sedimentation, 20 mM Tris-HCl pH 7.5, 200 mM NaCl, 20°C, 20,000 and 26,000 rpm, 12.6, 16.8 and 21.0 uM protein; data fit a homogeneous dimer model; reversible monomer-dimer and monomer-trimer models rejected
protein,measurement,value
"triosephosphate isomerase from Thermoplasma acidophilum (enzyme, UniProt Q9HLB6 1-216, looked up, Cloned into pET-28a(+) with a C-terminal His6-tag; no tag removal is described; The monomer mass used for AUC is 24,671 daltons; The crystals with glycerol-3-phosphate (G3P) hold the same protein; also called TaTPI; apo-TaTPI; source: E. coli Rosetta 2(DE3)pLysS, purified (heat step 60°C, HiTrap Chelating, SEC, anion exchange, SEC)) MYTAIVNLKTYREATGANFTRFMEKFEPVQGKFELIFSPSLLDLEKAAKCGKFRFFAQHVDAEPYGAYTGHVPMDMMIDLGITGSILNHSERRLPRDTIINTLKKASKLDFTIVLCVENAEEAKYFREYEPDFIAYEPRDLIGGDVSVSTAKPEIIEDIVKIYEGTGTSVLVGAGIKTGEDVRRSIGLGARGILVASGVVKSADPTKSLNSLIELK",stoichiometry N,2

# From paper PMC4692482, “Structure and Stability of the Dimeric Triosephosphate Isomerase from the Thermophilic Archaeon Thermoplasma acidophilum” (PLoS ONE, 2015)
